Measurements from patent publication US20110039770A1 (PHARMAGAP, published 2011).

What was measured:
PKC-α, purified isoform = PKC-α, purified isoform (UniProt P17252 1-672); assay: cell-based or functional assay
PKC-βI, purified isoform = PKC-βI, purified isoform (UniProt P05771-1 1-671); assay: cell-based or functional assay
[1] = target: PKC-βII, purified isoform (UniProt P05771-2 1-673); assay: cell-based or functional assay
PKC-ε, purified isoform = target: T1, PKC-ε, purified isoform (UniProt Q02156 1-737); assay: cell-based or functional assay
T1 sequence (looked up): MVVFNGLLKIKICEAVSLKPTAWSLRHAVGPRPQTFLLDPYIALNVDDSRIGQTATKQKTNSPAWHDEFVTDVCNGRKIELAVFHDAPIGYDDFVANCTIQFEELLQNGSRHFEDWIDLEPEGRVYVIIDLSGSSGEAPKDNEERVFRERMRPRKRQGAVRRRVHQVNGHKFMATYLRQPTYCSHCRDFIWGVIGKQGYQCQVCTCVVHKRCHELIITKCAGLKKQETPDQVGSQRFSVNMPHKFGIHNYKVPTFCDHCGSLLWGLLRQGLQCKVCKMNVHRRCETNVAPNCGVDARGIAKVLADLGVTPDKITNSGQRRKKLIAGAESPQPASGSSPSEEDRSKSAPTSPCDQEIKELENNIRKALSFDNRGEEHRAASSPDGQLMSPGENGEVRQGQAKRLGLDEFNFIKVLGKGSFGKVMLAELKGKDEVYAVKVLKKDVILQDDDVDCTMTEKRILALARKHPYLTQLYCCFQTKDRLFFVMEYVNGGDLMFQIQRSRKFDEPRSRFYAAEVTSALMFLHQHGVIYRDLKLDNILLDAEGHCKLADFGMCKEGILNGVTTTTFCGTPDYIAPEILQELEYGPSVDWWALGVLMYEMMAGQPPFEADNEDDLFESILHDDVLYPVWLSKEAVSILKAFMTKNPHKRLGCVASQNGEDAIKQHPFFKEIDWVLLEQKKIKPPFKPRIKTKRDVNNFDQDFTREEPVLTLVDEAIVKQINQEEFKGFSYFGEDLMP

PKC-α (purified isoform) [2] = target: T2, PKC-α (purified isoform) (Homo sapiens (Human), UniProt P17252 2-672); assay: competitive ELISA, coated purified PKC-α, vs anti-PKC α (SC-208); PRE 50 µM
T2 construct: also called purified PKC-alpha; commercially purified PKC-alpha
Procedure: (§1) Greiner 96 well ELISA plates were coated with the appropriate PKC isoform diluted in PBSN (PBS with Calcium/Magnesium+0.05% Sodium azide w/w). 50 μL/well at 250 ng/mL was used. Control wells contained PBSN only. Plates were incubated overnight at 4° C.
(§2) The plates were washed 3 times with 200 μL of dH₂O per well, then 100 μL of blocking solution was added per well and the plate incubated for 1 h at 37° C. The washing steps with dH₂O were repeated and 50 μL of the appropriate PRE solution (PRE stock solution [20 mM in DMSO] diluted in PBSN) was added and the plate incubated for 1 h at room temperature.
(§3) 50 μL of 1:1000 dilution of Alkaline Phosphatase (AP) conjugated antibody (anti-rabbit for all except zeta, which was anti-goat) was then added and the plate incubated for 1 h at room temperature. Washing with dH₂O was then repeated. Finally, 100 μL of pNPP solution in pNPP buffer (2 mM MgCl₂, 100 mM Sodium bicarbonate in water, pH 9.8) was added to all wells and incubated for 8 minutes for α, βI, βII ε, and ζ, or for 15-20 mins for δ (until sufficient coloration is observed). The reaction was stopped by addition of Stop solution (2N NaOH) and the absorbance at 405 nm was read on a Galaxy Plate reader.

PKC-δ (purified isoform) [3] = target: T3, PKC-δ (purified isoform); assay: competitive ELISA, coated purified PKC-δ, vs anti-PKC δ (SC-213); PRE 50 µM
T3 construct: also called PKC-delta
T3 sequence (Q05655 whole entry, stated change not applied, canonical isoform): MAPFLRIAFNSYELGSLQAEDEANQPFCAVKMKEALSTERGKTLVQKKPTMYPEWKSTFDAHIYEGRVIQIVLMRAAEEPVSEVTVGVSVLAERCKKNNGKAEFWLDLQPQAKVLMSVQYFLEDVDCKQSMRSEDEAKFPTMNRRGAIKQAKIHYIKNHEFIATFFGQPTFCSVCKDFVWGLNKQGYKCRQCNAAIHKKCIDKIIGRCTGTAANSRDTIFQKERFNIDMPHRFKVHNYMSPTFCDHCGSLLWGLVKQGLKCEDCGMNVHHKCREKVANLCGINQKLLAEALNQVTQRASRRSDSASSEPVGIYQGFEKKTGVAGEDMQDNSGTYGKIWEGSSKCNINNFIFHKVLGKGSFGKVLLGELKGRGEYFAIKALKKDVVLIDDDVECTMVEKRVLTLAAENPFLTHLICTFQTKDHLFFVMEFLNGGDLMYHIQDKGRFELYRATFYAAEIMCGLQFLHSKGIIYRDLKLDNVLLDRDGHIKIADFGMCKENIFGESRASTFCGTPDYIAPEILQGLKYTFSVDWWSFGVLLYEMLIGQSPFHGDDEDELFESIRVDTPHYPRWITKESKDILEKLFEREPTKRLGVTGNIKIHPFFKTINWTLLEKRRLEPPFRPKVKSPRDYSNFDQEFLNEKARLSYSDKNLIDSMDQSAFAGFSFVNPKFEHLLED
Procedure: as §1, §2, §3

PKC-α (purified isoform) [4] = target: T2, PKC-α (purified isoform); assay: competitive ELISA, coated purified PKC-α, vs anti-PKC α (SC-208); PRE 100 µM
Procedure: as §1, §2, §3

PKC-α (purified isoform) [5] = target: T2, PKC-α (purified isoform); assay: competitive ELISA, coated purified PKC-α, vs anti-PKC α (SC-208); PRE 200 µM
Procedure: as §1, §2, §3

PKC-δ (purified isoform) [6] = target: T3, PKC-δ (purified isoform); assay: competitive ELISA, coated purified PKC-δ, vs anti-PKC δ (SC-213); PRE 100 µM
Procedure: as §1, §2, §3

PKC-δ (purified isoform) [7] = target: T3, PKC-δ (purified isoform); assay: competitive ELISA, coated purified PKC-δ, vs anti-PKC δ (SC-213); PRE 200 µM
Procedure: as §1, §2, §3

[8] = target: T4, PKC-βI (purified isoform) (Homo sapiens (Human), UniProt P05771 2-671); assay: competitive ELISA, coated purified PKC-βI, vs anti-PKC βI (SC-209); PRE 50 µM
T4 construct: also called PKC-beta I; PKC beta 1
T4 sequence (P05771 2-671 limits assumed): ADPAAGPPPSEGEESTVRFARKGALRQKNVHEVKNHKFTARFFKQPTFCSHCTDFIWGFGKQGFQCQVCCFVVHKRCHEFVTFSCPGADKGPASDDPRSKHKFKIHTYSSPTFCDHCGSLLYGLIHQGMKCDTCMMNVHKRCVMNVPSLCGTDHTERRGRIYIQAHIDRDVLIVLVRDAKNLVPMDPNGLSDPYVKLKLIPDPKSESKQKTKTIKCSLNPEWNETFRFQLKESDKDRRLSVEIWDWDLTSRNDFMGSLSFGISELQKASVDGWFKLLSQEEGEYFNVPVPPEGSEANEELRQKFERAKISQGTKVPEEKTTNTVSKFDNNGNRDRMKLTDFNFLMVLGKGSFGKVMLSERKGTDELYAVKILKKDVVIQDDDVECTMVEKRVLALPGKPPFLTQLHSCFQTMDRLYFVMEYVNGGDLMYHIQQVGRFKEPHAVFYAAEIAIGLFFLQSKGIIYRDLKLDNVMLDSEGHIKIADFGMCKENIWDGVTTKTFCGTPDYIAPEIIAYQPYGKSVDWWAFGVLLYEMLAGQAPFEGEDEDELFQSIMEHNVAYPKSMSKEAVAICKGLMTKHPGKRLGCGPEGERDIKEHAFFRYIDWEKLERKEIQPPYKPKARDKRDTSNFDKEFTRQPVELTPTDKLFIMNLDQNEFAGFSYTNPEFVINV
Procedure: as §1, §2, §3

[9] = target: T4, PKC-βI (purified isoform); assay: competitive ELISA, coated purified PKC-βI, vs anti-PKC βI (SC-209); PRE 100 µM
Procedure: as §1, §2, §3

[10] = target: T4, PKC-βI (purified isoform); assay: competitive ELISA, coated purified PKC-βI, vs anti-PKC βI (SC-209); PRE 200 µM
Procedure: as §1, §2, §3

[11] = target: T5, PKC-βII (purified isoform) (Homo sapiens (Human), UniProt P05771 2-621); assay: competitive ELISA, coated purified PKC-βII, vs anti-PKC βII (SC-210); PRE 50 µM
T5 construct: also called PKC-beta II; PKC beta 2
T5 sequence (P05771 other isoform, or with tags, fused parts or gaps limits assumed): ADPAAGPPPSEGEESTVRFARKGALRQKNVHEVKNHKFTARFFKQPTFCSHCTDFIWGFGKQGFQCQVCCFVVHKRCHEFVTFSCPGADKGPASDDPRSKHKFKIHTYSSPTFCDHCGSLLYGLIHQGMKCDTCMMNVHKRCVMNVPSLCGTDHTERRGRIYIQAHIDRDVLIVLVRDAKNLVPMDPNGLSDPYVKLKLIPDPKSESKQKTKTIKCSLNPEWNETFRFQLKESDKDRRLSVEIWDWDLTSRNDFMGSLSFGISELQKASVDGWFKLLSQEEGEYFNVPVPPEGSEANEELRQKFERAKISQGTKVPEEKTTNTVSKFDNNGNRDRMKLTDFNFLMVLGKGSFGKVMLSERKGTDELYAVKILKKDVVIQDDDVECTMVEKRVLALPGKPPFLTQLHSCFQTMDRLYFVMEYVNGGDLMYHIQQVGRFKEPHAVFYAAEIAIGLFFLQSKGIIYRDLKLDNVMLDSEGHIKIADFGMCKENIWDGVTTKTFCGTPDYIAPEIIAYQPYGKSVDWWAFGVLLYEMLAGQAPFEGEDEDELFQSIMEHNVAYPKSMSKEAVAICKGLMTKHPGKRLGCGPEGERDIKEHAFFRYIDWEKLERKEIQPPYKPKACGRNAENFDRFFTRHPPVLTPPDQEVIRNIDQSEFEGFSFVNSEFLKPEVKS
Procedure: as §1, §2, §3

[12] = target: T5, PKC-βII (purified isoform); assay: competitive ELISA, coated purified PKC-βII, vs anti-PKC βII (SC-210); PRE 100 µM
Procedure: as §1, §2, §3

[13] = target: T5, PKC-βII (purified isoform); assay: competitive ELISA, coated purified PKC-βII, vs anti-PKC βII (SC-210); PRE 200 µM
Procedure: as §1, §2, §3

PKC-α = PKC-α (UniProt P17252 1-672, limits assumed); assay: cell-based or functional assay
PKC-βI = PKC-βI (UniProt P05771-1 1-671, limits assumed); assay: cell-based or functional assay
Chain of PKC-βI (P05771 whole entry): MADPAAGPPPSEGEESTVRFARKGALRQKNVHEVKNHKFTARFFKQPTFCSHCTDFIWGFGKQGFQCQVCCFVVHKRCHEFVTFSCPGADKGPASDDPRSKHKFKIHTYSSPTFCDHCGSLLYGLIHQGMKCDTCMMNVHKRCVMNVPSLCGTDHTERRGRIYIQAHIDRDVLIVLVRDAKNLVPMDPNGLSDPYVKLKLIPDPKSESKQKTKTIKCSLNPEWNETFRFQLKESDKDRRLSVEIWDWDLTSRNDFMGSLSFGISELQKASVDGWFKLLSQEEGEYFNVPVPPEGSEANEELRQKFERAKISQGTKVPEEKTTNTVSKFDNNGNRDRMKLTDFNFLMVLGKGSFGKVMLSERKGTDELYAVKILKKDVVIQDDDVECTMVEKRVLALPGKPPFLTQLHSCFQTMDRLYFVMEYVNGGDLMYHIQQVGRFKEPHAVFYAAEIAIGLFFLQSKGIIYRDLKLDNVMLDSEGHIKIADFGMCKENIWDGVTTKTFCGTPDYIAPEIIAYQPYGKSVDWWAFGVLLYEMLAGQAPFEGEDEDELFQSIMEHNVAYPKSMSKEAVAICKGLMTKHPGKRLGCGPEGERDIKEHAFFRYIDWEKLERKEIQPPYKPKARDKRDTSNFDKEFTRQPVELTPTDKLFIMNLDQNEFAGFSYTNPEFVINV

PKC-ε = target: T6, PKC-ε (UniProt Q02156 1-737); assay: cell-based or functional assay
T6 sequence (looked up): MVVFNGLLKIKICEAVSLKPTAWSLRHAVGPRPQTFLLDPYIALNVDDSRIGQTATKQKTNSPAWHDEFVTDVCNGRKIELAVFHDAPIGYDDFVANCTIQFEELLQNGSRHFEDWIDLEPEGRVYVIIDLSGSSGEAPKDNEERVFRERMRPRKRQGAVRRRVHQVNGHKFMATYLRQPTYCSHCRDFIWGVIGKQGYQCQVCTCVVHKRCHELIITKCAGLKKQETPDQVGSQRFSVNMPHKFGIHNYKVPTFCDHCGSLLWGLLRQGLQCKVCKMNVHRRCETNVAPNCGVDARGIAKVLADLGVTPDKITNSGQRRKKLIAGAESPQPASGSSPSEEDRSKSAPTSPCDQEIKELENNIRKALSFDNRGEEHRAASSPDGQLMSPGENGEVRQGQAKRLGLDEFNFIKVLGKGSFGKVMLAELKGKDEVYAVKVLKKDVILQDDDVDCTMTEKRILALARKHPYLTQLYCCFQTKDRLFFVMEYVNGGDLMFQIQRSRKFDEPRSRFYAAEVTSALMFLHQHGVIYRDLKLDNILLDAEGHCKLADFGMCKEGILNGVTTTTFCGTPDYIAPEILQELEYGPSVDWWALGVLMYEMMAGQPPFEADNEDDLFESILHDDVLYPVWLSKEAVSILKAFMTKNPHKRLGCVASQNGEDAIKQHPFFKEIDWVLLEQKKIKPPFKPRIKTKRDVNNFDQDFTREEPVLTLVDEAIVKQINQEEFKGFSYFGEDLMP

Chain of PKC-βI, purified isoform (P05771 whole entry, canonical isoform): as the sequence (P05771 whole entry) above
Chain of PKC-βII, purified isoform (P05771 other isoform, or with tags, fused parts or gaps limits assumed): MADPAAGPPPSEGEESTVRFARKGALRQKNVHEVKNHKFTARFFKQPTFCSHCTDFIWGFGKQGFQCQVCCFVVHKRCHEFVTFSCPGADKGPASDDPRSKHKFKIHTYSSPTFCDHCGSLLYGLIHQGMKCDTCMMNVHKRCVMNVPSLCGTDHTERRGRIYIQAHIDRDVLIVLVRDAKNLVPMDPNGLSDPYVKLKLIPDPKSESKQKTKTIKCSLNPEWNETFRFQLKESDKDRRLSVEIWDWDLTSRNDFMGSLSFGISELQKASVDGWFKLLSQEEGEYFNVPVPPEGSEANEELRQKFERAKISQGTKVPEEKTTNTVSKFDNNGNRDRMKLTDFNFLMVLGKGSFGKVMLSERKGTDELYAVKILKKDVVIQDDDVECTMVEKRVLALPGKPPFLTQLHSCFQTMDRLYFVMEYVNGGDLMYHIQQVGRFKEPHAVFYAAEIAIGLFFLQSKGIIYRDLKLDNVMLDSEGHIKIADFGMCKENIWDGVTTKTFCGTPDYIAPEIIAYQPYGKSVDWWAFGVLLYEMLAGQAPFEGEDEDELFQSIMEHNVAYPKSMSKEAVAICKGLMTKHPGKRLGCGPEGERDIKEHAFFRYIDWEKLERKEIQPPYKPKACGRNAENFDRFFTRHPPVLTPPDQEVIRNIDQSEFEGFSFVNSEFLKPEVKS

B1: compound PKI 4 (peptide)
peptide: FRRCFRL
B1 was tested, and the “% Inhibition of PKC activity at 150 µM” value (PKC-α, purified isoform) was 80%, the “% Inhibition of PKC activity at 300 µM” value (PKC-α, purified isoform) was 80% and the “% Inhibition of PKC activity at 600 µM” value (PKC-α, purified isoform) was 80%. For the same binder, the “% Inhibition of PKC activity at 150 µM” value (PKC-βI, purified isoform) was 72%, the “% Inhibition of PKC activity at 300 µM” value (PKC-βI, purified isoform) was 72% and the “% Inhibition of PKC activity at 600 µM” value (PKC-βI, purified isoform) was 82%. For the same binder, the “% Inhibition of PKC activity at 150 µM” value [1] was 83%, the “% Inhibition of PKC activity at 300 µM” value [1] was 83% and the “% Inhibition of PKC activity at 600 µM” value [1] was 82%. The “% Inhibition of PKC activity at 150 µM” value (PKC-ε, purified isoform) was 55%, the “% Inhibition of PKC activity at 300 µM” value (PKC-ε, purified isoform) was 55% and the “% Inhibition of PKC activity at 600 µM” value (PKC-ε, purified isoform) was 77%.

B2: PRE 5 (peptide)
peptide: Ac-AKGIQEVKGGKDAQNLIGISI-NH2
notes: also called peptide PRE 5
For B2, the “relative binding capacity (100-%n, DMSO subtracted)” value (PKC-α (purified isoform) [2]) was 0%, the “relative binding capacity (100-%n, DMSO subtracted)” value (PKC-δ (purified isoform) [3]) was 0.2% and the “relative binding capacity (100-%n, DMSO subtracted)” value (PKC-α (purified isoform) [4]) was 0%. For the same binder, the “relative binding capacity (100-%n, DMSO subtracted)” value (PKC-α (purified isoform) [5]) was 0%, the “relative binding capacity (100-%n, DMSO subtracted)” value (PKC-δ (purified isoform) [6]) was 0% and the “relative binding capacity (100-%n, DMSO subtracted)” value (PKC-δ (purified isoform) [7]) was 4.31%. The “relative binding capacity (100-%n, DMSO subtracted)” value [8] was 0%, the “relative binding capacity (100-%n, DMSO subtracted)” value [9] was 0% and the “relative binding capacity (100-%n, DMSO subtracted)” value [10] was 0%. The “relative binding capacity (100-%n, DMSO subtracted)” value [11] was 0%, the “relative binding capacity (100-%n, DMSO subtracted)” value [12] was 0% and the “relative binding capacity (100-%n, DMSO subtracted)” value [13] was 0%.

B3: Compound TIM 18 (PRE 3 and PKI 4) (peptide)
chain: Ac-FRRCFRLGGGGGGGAKGIQEVKGGDAQNLIGISI-NH2
For B3, the “% Inhibition of kinase activity (Kinase-Glo), compound at 5.0 µM” value (“% Inhibition of kinase activity … at 5.0 µM” for short) (PKC-α) was 100%, the “% Inhibition of kinase activity (Kinase-Glo), compound at 30.0 µM” value (from here on “% Inhibition of kinase activity … at 30.0 µM”) (PKC-α) was 100% and the “% Inhibition of kinase activity … at 5.0 µM” value (PKC-βI) was 76.3%. For the same binder, the “% Inhibition of kinase activity … at 30.0 µM” value (PKC-βI) was 76.1%, the “% Inhibition of kinase activity … at 5.0 µM” value (PKC-ε) was -28% and the “% Inhibition of kinase activity … at 30.0 µM” value (PKC-ε) was 1%.
